Results from patent publication US20060003399A1, “High throughput actin polymerization assay” (Cytokinetics, Inc., priority 2004, published 2006).

Experiments:
[1] = target: T1, Arp2/3 complex; test: Actin polymerization assay comparing FL-WASP/N-WASP and truncated forms of WASP; type: biochemical, human; details: without activators, FIG. 7
T1 construct: from tissue
Procedure: 1. A cellular extract containing Arp2/3 complex was prepared from an Arp2/3 source such as human platelets (see, e.g., U.S. Provisional Application No. 60/578,969, filed Jun. 10, 2004; Welch and Mitchison (Meth. Enzymology 298:52-61,1988); and Higgs, H. N. et al. (Biochemistry 38:15212-15222, 1999), all of which are incorporated herein by reference in their entirety for all purposes).
Samples containing candidate agents (individually or as mixtures) are placed into wells on a multi-well plate. Mix 1 is added to each of the wells and mixed with the candidate agent. A sample of Mix 2 is then introduced into each well and the resulting mixture thoroughly mixed. Typically, Mix 1 and Mix 2 are mixed in 1:1 ratio (e.g., 50 μl each of Mix 1 and Mix 2).
Actin polymerization is measured as a function of time by exciting pyrene at 365 nm and by detecting an increase in fluorescence emission at 407 nm, or by exciting acrylodan at 405 nm and by detecting an increase in fluorescence emission at 460 nm. The change in fluorescence over time is utilized to determine a fluorescence parameter (e.g., maximal velocity, time to half maximal fluorescence intensity, or area under the curve of a plot of fluorescence versus time; see e.g., FIGS. 5A-5F).
Arp2/3 was purified as described in Example 1. […]

[2] = target: Arp2/3; test: Activities of WASP/N-WASP proteins (Table 4); type: biochemical
Text: The term “variant” or “analogue” generally refers to proteins that are functional equivalents to a native sequence that have similar amino acid sequences and retain, to some extent, one of the activities of the corresponding native protein. Variants/analogues include fragments that retain one or more activities of the corresponding native protein. Examples of WASP and N-WASP activity include, but are not limited to, capacity to: 1) bind Arp2/3 and actin; 2) activate the actin nucleation activity of Arp2/3 (descriptions of assays to detect nucleation activity are provided below); 3) bind an upstream regulator; 4) be regulated by one or more upstream regulators, thereby rendering the WASP or N-WASP protein able to activate the nucleation activity of Arp2/3; and 5) bind downstream regulators initiating signal transduction cascades. Some of the WASP and N-WASP proteins that are provided are able to recapitulate the full activity of WASP or N-WASP, which means that these proteins have all five of the activities just listed. […]
A third class of NPF proteins that can be utilized in some assays include WASP, N-WASP and SCAR proteins that include the WH1 domain but in which the PolyPro region is (e.g., deleted). A fourth class of NPF proteins that can be utilized in some assays are WASP, N-WASP and SCAR deletion mutants in which the PolyPro region is maintained but an N-terminal region (e.g., WH1 domain) is at least partially removed. Some proteins in this class are ones that include the B, CRIB/GBD (WASP and N-WASP), PolyPro and VCA domains, but in which some or all of the WH1 has been removed. One specific example is 98N-WASP, which includes amino acids 98-501 of SEQ ID NO:4. Another specific example is the 105WASP protein, which includes amino acids 105-501 of SEQ ID NO:2 (see FIG. 4B).
As indicated in this table, specific examples of fusion proteins that can be utilized include those that include a segment that encodes full-length WASP or N-WASP, including: Myc-WASP-TAP (SEQ ID NO:14); and Myc-N-WASP-TAP (SEQ ID NO: 16). Examples of fusion proteins that include a WASP or N-WASP deletion mutant domain include: GST-105WASP (SEQ ID NO:18); Myc-105WASP-TAP (SEQ ID NO:20); GST-tev-98N-WASP (SEQ ID NO:22); and Myc-98N-WASP-TAP (SEQ ID NO:24). The TAP tag in these particular fusion proteins has the general structure CBP-tev-ProtA (SEQ ID NO:36). Fusion proteins such as those listed in Table 4 can in some instances be utilized directly, or after one or both of the C- and N-terminal tags are removed. For example, the fusion proteins listed in Table 4 as having a TAP tag can be used once the TAP tag has been cleaved off and/or after the C-terminal tag has been removed.

[3] = Solubility of purified full-length WASP / N-WASP; type: physicochemical; details: purified TAP-tag protein from 293 cells

B1: FL-N-WASP: full length human N-WASP (SEQ ID NO:4), nucleation promoting factor (protein, listed as Homo sapiens)
chain: MSSVQQQPPPPRRVTNVGSLLLTPQENESLFTFLGKKCVTMSSAVVQLYAADRNCMWSKKCSGVACLVKDNPQRSYFLRIFDIKDGKLLWEQELYNNFVYNSPRGYFHTFAGDTCQVALNFANEEEAKKFRKAVTDLLGRRQRKSEKRRDPPNGPNLPMATVDIKNPEITTNRFYGPQVNNISHTKEKKKGKAKKKRLTKADIGTPSNFQHIGHVGWDPNTGFDLNNLDPELKNLFDMCGISEAQLKDRETSKVIYDFIEKTGGVEAVKNELRRQAPPPPPPSRGGPPPPPPPPHNSGPPPPPARGRGAPPPPPSRAPTAAPPPPPPSRPSVAVPPPPPNRMYPPPPPALPSSAPSGPPPPPPSVLGVGPVAPPPPPPPPPPPGPPPPPGLPSDGDHQVPTTAGNKAALLDQIREGAQLKKVEQNSRPVSCSGRDALLDQIRQGIQLKSVADGQESTPPTPAPTSGIVGALMEVMQKRSKAIHSSDEDEDEDDEEDFEDDDEWED
modifications: (1)..(505) FL-N-WASP
- stimulation of actin polymerization by the protein alone (in words) [1]: weakly stimulate actin polymerization
- Activate Arp2/3? [2]: Yes
- Regulated By Which Upstream Regulators? [2]: Cdc42, PIP2, Nck, Rac1
- solubility (in words) [3]: completely soluble
